Positions count from the first letter of the chain named. Numbers in names are those of the source.
Columns and labels:
[1] = test system: UreD-GFP fusion protein (urea-inducible ureD promoter); experiment: Urea induction of UreD-GFP fusion, Western blot with anti-GFP; assay type: cell-based, P. mirabilis HI4320; details: 0-500 mM urea tested (FIG. 1)
From the text: Thus, to investigate in vivo expression of P. mirabilis urease, the gene encoding green fluorescent protein (GFP) was used to construct reporter fusions. Translational fusions of urease accessory gene ureD, which is preceded by a urea-inducible promoter, were made with gfp (modified to express S65TIV68L/S72A, a well-known variant of gfp). The constructs were confirmed by sequencing of the fusion junctions. UreD-GFP fusion protein was induced by urea in both E. coli DH5a and P. mirabilis HI4320. Thereafter, Western blotting was carried out with antiserum raised against GFP.

[2] = test system: ureD promoter (PureD-lacZ reporter construct); experiment: β-galactosidase reporter assay (PureD-lacZ) with UreR constructs; assay type: cell-based, E. coli Top10
Description: Cultures were grown to mid-log phase and induced with 0.2% (w/v) arabinose in the presence or absence of 100 mM urea for 90 min. All constructs were assayed in duplicate in five independent experiments.
More specifically, wild-type ureR was cloned into the NcoI/XhoI site of pBAD/MycHisA (Invitrogen) to create pCP016 (Poore et al, supra). This construct was used to create alanine mutants using overlapping PCR site-directed mutagenesis as described by Ho et al, Gene, 71:51-59 (1989); and Poore et al, supra. Full-length mutant ureR PCR products were then constructed by ligation into the NcoI/XhoI site of pBAD/MycHisA. Following PCR mutation to Ala, all of the cloned products in the pBAD vector were verified by sequencing. The constructs were then cotransformed with the reporter vector PureD-lacZ into E. coli Top10 (pCC142) (Invitrogen). The β-gal reporter construct pCC042 (tetR) carries a transcriptional fusion of the ureD promoter (pureD) and lacZ (Poore et al, supra). Unless otherwise stated, strains were cultured in Luria broth supplemented with ampicillin (100 μg/ml), kanamycin (50 μg/ml), or tetracycline (15 μg/ml) as required. Thereafter, activity was determined using a β-galactosidase reporter assay in the absence and presence of 100 mM urea.
More specifically, overnight cultures were diluted 1:10 into fresh medium supplemented with ampicillin. Mid-exponential cultures were induced with 0.2% (w/v) arabinose and either no urea or 100 mM urea for 1 h. Bacterial suspensions were placed on ice for 10 min and then permeabilized with 0.1% (w/v) SDS (50 μl) and chloroform (100 μl) at room temperature for 30 min. Aliquots (20-50 μl) were diluted to 1.0 ml in Z buffer comprising 200 μl o-nitrophenyl-β-D-galactopyranoside (4.0 mg/ml) and were incubated at room temperature. Timed reactions were stopped by addition of 1.0 M Na2CO3 (500 μl) and the optical densities at 420 nm and 550 nm were used to calculate Miller units for each assay (Platt et al, “Assays of β-galactosidase Activity”, In: Miller (ed.), Experiments in Molecular Genetics, Cold Spring Harbor Press, Cold Spring Harbor, N.Y., pages 352-355 (1972)). […] The results, which are shown in Table 1 below, are expressed as the average of at least three independent experiments.
The UreR Trp point mutants were confirmed by sequencing and were tested for the ability to induce β-galactosidase expression using the PureD-lacZ reporter assay in the presence of 100 mM urea as described above.

[3] = Trp emission spectra of purified nUreR Trp mutants titrated with urea; assay type: binding; details: upon addition of urea (0-150 mM); excitation 280 nm; room temperature
Description: Protein samples (2.0 μM) in 50 mM PBS (pH 7.0), were excited at 280 nm at room temperature.
Three independent experiments were used to calculate the binding constant for this mutant. ΔTrp Emission is the difference in Trp emission intensity with and without urea. The binding constant was determined by fitting the data to the corresponding Hill parameters.
More specifically, Trp emission spectra were collected at room temperature using a Varian Cary Eclipse spectrofluorometer. Purified nUreR Trp mutants (5.0 μM) were excited at 280 nm and urea-dependent emission spectra were measured on the same sample following titration with increasing concentrations (0-150 mM) of urea.
The corresponding Hill parameters were invoked using the curve fitting functions packaged with the Microcal Origin 6.0 data analysis graphing program (Northampton, Mass.).
Trp fluorescence emission spectra from 300-450 nm were taken in the presence of increasing concentrations of urea (0, 0.05, 1, 10, 100 and 150 mM).

## NC(N)=O [urea]
[1]
  urea concentration giving highest induction of UreD-GFP: 200 to 500 mM

B1: Y54W UreR (protein, UniProt Q02458 1-293, looked up, variant Y54W)
Urease operon transcriptional …: MEYKHILSSNQISLKTFYIENPMIAIVYGAKGEICINGQTITVTTNLTLIIPKWSQVSCDVTNFFPTKPIELHTLVLSETELQSVFSLLKPLIKSGAPITRHLPDYHLSTPEVVKTNFTLLQQCLPLEHGTPSQETLFMQQSLFFILLAVYHEGVDILNIFRFNYDEPKNQAITHLITQDPQRKWHLEDVAKTLYTTPSTLRRHLSKEGVSFCQLLLDVRMPIALNYLTFSNYSVFQISHRCGFGSNAYFCDAFKRKYGMTPSQFRTQSRQANDPNAIATMASQNDESIKKVF
[2]; addition of 100 mM urea (FIG. 3)
  fold induction in β-galactosidase activity: 2.8 fold
[2]; full-length UreR Trp point mutants, 100 mM urea (FIG. 3)
  β-galactosidase reporter activity compared to wild-type UreR: overall reduction in the level of activation

B2: Y151W nUreR (protein, UniProt Q02458 1-293, looked up, variant Y151W)
Urease operon transcriptional …: B1 Urease operon transcriptional … with W54Y, Y151W
[3]
  % Decrease in Trp Emission: 9 ± 2%

B3: Wild-type: wild-type P. mirabilis UreR expressed from pBAD/MycHisA (pCP016) (protein, UniProt Q02458 1-293, looked up)
Urease operon transcriptional …: B1 Urease operon transcriptional … with W54Y
modifications: Myc-His tag from pBAD/MycHisA
[2]; 0 mM urea, 0.2% arabinose induction, average of at least three experiments
  β-Galactosidase Activity (Miller units), 0 mM urea: 632 ± 203 Miller units
[2]; 100 mM urea, 0.2% arabinose induction, average of at least three experiments
  β-Galactosidase Activity (Miller units), 100 mM urea: 3709 ± 1570 Miller units

Source: US20040072369A1, “Methods for assaying for urea and kits for use therein” (priority 2002, published 2004)
